We go through one substance from PMC4201484.

In one test the target is β-TrCP1 (UniProt Q9Y297). Briefly: co-IP, anti-HA IP, anti-Flag blot. Particulars: reference: wild type; sites S525.
The next test has as its target β-TrCP2 (UniProt Q9UKB1). Briefly: co-IP, anti-HA IP, anti-Flag blot. Particulars: reference: wild type; sites S525.

With Rap1GAP (from UniProt P47736) S525A, the “binding against the reference” value with β-TrCP1 and with β-TrCP2 was “weaker” throughout.
